Test results reported in US20250135018A1.

T1: CD70 (UniProt P32970)
T1 sequence (looked up): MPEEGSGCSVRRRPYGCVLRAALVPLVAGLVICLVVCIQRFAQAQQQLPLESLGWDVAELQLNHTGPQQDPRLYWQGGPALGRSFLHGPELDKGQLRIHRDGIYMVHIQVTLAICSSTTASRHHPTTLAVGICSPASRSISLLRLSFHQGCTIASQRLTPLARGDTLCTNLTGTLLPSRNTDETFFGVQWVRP

B1: Ag3-Ex_4-1: h1F6 anti-CD70 antibody conjugated to MP-PEG4-Val-Lys-Gly-7-MAD-MDCPT, DAR=8 (antibody, INN chains, looked up, V domains shown)
VH: QVQLVQSGAEVKKPGASVKVSCKASGYTFTNYGMNWVRQAPGQGLKWMGWINTYTGEPTYADAFKGRVTMTRDTSISTAYMELSRLRSDDTAVYYCARDYGDYGMDYWGQGTTVTVSS
VL: DIVMTQSPDSLAVSLGERATINCRASKSVSTSGYSFMHWYQQKPGQPPKLLIYLASNLESGVPDRFSGSGSGTDFTLTISSLQAEDVAVYYCQHSREVPWTFGQGTKVEIK
modifications: MP-PEG4-Val-Lys-Gly-MDCPT conjugate, DAR 8
B2: Ag3-Ex_8-1a: h1F6 anti-CD70 antibody conjugated to MC-GGFG-NHCH2-DXd(1), DAR=8 (antibody, INN chains, looked up, V domains shown)
VH: B1 VH
VL: B1 VL
modifications: MC-GGFG-DXd conjugate, DAR 8

Columns and labels:
Experiment in all cases: cell-based or functional assay
NTB-A = NTB-A (UniProt Q96DU3)
CD48 = CD48 (UniProt P09326)
CD70 = molecular target: T1, CD70

CD48, sequence (P09326 27-220 limits assumed): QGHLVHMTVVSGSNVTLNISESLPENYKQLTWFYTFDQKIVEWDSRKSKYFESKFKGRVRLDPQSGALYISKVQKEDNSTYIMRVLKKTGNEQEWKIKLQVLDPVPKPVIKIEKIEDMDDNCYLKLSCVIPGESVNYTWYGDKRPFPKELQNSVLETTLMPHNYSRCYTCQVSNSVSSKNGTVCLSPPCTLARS
NTB-A, sequence (Q96DU3 22-332 limits assumed): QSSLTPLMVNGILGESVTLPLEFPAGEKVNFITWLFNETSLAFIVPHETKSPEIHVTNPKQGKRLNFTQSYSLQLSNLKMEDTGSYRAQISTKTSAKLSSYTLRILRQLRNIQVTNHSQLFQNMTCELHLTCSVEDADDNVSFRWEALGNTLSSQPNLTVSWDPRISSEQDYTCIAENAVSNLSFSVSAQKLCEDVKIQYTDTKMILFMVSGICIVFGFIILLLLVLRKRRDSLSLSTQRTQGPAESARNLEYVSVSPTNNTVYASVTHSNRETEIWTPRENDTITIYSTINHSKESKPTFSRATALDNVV

Molecule | IC50 of cell growth (CellTiter-Glo, 96 h), EJM cells (NTB-A) [µg/mL] | IC50 of cell growth (CellTiter-Glo, 96 h), KMM-1 cells (NTB-A) [µg/mL] | IC50 of cell growth (CellTiter-Glo, 96 h), MM.1R cells (NTB-A) [µg/mL] | IC50 of cell growth (CellTiter-Glo, 96 h), NCI-H929 cells (NTB-A) [µg/mL] | IC50 of cell growth (CellTiter-Glo, 96 h), U-266 cells (NTB-A) [µg/mL] | percent cells remaining at highest concentration tested, KMM-1 cells (NTB-A) [%] | IC50 of cell growth (CellTiter-Glo, 96 h), EJM cells (CD48) [µg/mL] | IC50 of cell growth (CellTiter-Glo, 96 h), KMM-1 cells (CD48) [µg/mL] | IC50 of cell growth (CellTiter-Glo, 96 h), MM.1R cells (CD48) [µg/mL] | IC50 of cell growth (CellTiter-Glo, 96 h), NCI-H929 cells (CD48) [µg/mL] | IC50 of cell growth (CellTiter-Glo, 96 h), U-266 cells (CD48) [µg/mL] | percent cells remaining at highest concentration tested, EJM cells (CD48) [%] | percent cells remaining at highest concentration tested, KMM-1 cells (CD48) [%] | percent cells remaining at highest concentration tested, MM.1R cells (CD48) [%] | percent cells remaining at highest concentration tested, NCI-H929 cells (CD48) [%] | IC50 of cell growth (CellTiter-Glo, 96 h), 786-O cells (CD70) [µg/mL] | IC50 of cell growth (CellTiter-Glo, 96 h), Caki-1 cells (CD70) [µg/mL] | IC50 of cell growth (CellTiter-Glo, 96 h), Raji cells (CD70) [µg/mL] | IC50 of cell growth (CellTiter-Glo, 96 h), UM-RC-3 cells (CD70) [µg/mL] | percent cells remaining at highest concentration tested, 786-O cells (CD70) [%] | further results
Ag5-Ex_8-1a: h20F3 anti-NTB-A antibody conjugated to MC-GGFG-NHCH2-DXd(1), DAR=8 | 7.19 | 5.29 | 0.177 | 2.93 | > 10 | 45 | – | – | – | – | – | – | – | – | – | – | – | – | – | – | –
Ag5-Ex_4-1: h20F3 anti-NTB-A antibody conjugated to MP-PEG4-Val-Lys-Gly-7-MAD-MDCPT, DAR=8 | 0.15 | 0.177 | 0.005 | 0.08 | 0.097 | 16 | – | – | – | – | – | – | – | – | – | – | – | – | – | – | percent cells remaining at highest concentration tested, EJM cells (NTB-A): 31%; percent cells remaining at highest concentration tested, MM.1R cells (NTB-A): 0%; percent cells remaining at highest concentration tested, NCI-H929 cells (NTB-A): 2%; percent cells remaining at highest concentration tested, U-266 cells (NTB-A): 28%
Ag4-Ex_8-1a: hMEM102 anti-CD48 antibody conjugated to MC-GGFG-NHCH2-DXd(1), DAR=8 | – | – | – | – | – | – | 2.79 | 0.075 | 0.009 | 0.009 | > 10 | 0 | 34 | 0 | 3 | – | – | – | – | – | –
Ag4-Ex_4-1: hMEM102 anti-CD48 antibody conjugated to MP-PEG4-Val-Lys-Gly-7-MAD-MDCPT, DAR=8 | – | – | – | – | – | – | 0.053 | 0.018 | 0.004 | 0.006 | 0.017 | 27 | 16 | 1 | 2 | – | – | – | – | – | percent cells remaining at highest concentration tested, U-266 cells (CD48): 38%
B1 | – | – | – | – | – | – | – | – | – | – | – | – | – | – | – | 0.037 | 0.036 | 1.13 | 0.016 | 18 | percent cells remaining at highest concentration tested, Caki-1 cells (CD70): 24%; percent cells remaining at highest concentration tested, Raji cells (CD70): 45%; percent cells remaining at highest concentration tested, UM-RC-3 cells (CD70): 30%
B2 | – | – | – | – | – | – | – | – | – | – | – | – | – | – | – | > 10 | > 10 | 5.56 | 0.065 | 54 | percent cells remaining at highest concentration tested, Caki-1 cells (CD70): 68%; percent cells remaining at highest concentration tested, UM-RC-3 cells (CD70): 40%
